Laboratory results from FireProtDB (doi:10.1111/j.1399-3011.1982.tb00898.x).

Conditions: Escherichia coli (strain K12), Thermal, DSC, whole UniProt chain shown
[1] = pH 7, 25 °C, potassium phosphate 1 mM, reversible: yes(<50%)
[2] = pH 7, potassium phosphate 1 mM, reversible: yes(<50%)
[3] = pH 9.3, 25 °C, sodium tetraborate 1 mM, reversible: yes(>70%)
[4] = pH 9.3, sodium tetraborate 1 mM, reversible: yes(>70%)

B1: Tryptophan synthase alpha chain wild type, P0A877 (protein)
chain: MERYESLFAQLKERKEGAFVPFVTLGDPGIEQSLKIIDTLIEAGADALELGIPFSDPLADGPTIQNATLRAFAAGVTPAQCFEMLALIRQKHPTIPIGLLMYANLVFNKGIDEFYAQCEKVGVDSVLVADVPVEESAPFRQAALRHNVAPIFICPPNADDDLLRQIASYGRGYTYLLSRAGVTGAENRAALPLNHLVAKLKEYNAAPPLQGFGISAPDQVKAAIDAGAAGAISGSAIVKIIEQHINEPEKMLAALKVFVQPMKAATRS
In the case of B1, the “heat capacity change of unfolding” value [1] is reported as 2.9 kcal/mol/K, the unfolding free energy [1] is reported as 8.4 kcal/mol and the Tm [2] is reported as 62.4 °C. For the same protein, the “heat capacity change of unfolding” value [2] was 2.9 kcal/mol/K, the “heat capacity change of unfolding” value [3] was 2.9 kcal/mol/K and the unfolding free energy [3] was 5.8 kcal/mol. The Tm [4] was 54.3 °C and the “heat capacity change of unfolding” value [4] was 2.9 kcal/mol/K.
